In US9422349:

Target: GLP-1 receptor on RIN-m5F rat insulinoma cells (rat) (UniProt P32301)
Assay: cell-based or functional assay

UniProt P32301, sequence (P32301 22-463): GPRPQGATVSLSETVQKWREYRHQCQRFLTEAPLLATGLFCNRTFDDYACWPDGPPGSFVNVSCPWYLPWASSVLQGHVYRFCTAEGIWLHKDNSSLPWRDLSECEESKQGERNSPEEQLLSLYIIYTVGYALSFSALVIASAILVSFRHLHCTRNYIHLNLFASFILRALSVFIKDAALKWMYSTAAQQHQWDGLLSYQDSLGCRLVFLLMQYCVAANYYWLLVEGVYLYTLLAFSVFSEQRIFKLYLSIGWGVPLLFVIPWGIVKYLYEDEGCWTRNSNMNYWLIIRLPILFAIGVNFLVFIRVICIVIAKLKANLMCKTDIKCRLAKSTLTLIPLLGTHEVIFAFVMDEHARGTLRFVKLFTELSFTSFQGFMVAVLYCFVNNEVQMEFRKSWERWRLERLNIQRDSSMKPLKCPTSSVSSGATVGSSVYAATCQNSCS

| Substance | cAMP production in RIN-m5F cells, EC50 | cAMP production in RIN-m5F cells, ratio vs Exendin4 (ratio vs Exendin4) |
| --- | --- | --- |
| imidazoacetyl-exendin-4 (from UniProt P26349 48-86) (peptide) | 1.2 nM | 100 |
| desamino-histidyl-exendin-4 (from UniProt P26349 48-86) (peptide) | 0.95 nM | 127 |
